B1: N56A HMFG1 (antibody, human IgG1, kappa, V domains shown)
VH: QVQLVQSGAEVKKPGASVKVSCKASGYTFSAYWIEWVRQAPGKGLEWVGEILPGSANSRYNEKFKGRVTVTRDTSTNTAYMELSSLRSEDTAVYYCARSYDFAWFAYWGQGTLVTVSS
VL: DIQMTQSPSSLSASVGDRVTITCKSSQSLLYSSNQKIYLAWYQQKPGKAPKLLIYWASTRESGVPSRFSGSGSGTDFTFTISSLQPEDIATYYCQQYYRYPRTFGQGTKVEIKR
B2: N56C HMFG1 (antibody, human IgG1, kappa, V domains shown)
VH: QVQLVQSGAEVKKPGASVKVSCKASGYTFSAYWIEWVRQAPGKGLEWVGEILPGSCNSRYNEKFKGRVTVTRDTSTNTAYMELSSLRSEDTAVYYCARSYDFAWFAYWGQGTLVTVSS
VL: DIQMTQSPSSLSASVGDRVTITCKSSQSLLYSSNQKIYLAWYQQKPGKAPKLLIYWASTRESGVPSRFSGSGSGTDFTFTISSLQPEDIATYYCQQYYRYPRTFGQGTKVEIKR
B3: N56G HMFG1 (antibody, human IgG1, kappa, V domains shown)
VH: QVQLVQSGAEVKKPGASVKVSCKASGYTFSAYWIEWVRQAPGKGLEWVGEILPGSGNSRYNEKFKGRVTVTRDTSTNTAYMELSSLRSEDTAVYYCARSYDFAWFAYWGQGTLVTVSS
VL: DIQMTQSPSSLSASVGDRVTITCKSSQSLLYSSNQKIYLAWYQQKPGKAPKLLIYWASTRESGVPSRFSGSGSGTDFTFTISSLQPEDIATYYCQQYYRYPRTFGQGTKVEIKR
notes: also called N56G mutant

For this assay, the target named is T1, MUC1-GST fusion protein containing seven variable number tandem repeat (VNTR) region (UniProt P15941 166-305).
T1 construct: domain: seven variable number tandem, repeat (VNTR) region; Produced by the applicant; coated on the ELISA plate at 1 ug/ml; also called MUC1 antigen; antigen; not shown: GST fusion partner
T1 sequence (P15941 126-265): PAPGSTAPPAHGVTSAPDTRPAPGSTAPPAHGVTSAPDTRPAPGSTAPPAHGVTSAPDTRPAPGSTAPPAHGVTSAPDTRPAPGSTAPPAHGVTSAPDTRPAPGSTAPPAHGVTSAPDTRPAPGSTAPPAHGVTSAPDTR
Briefly: ELISA, plate-coated MUC1-GST; EC50 against HMFG1 standard of the same assay. The method, then: 96-well plates (Nunc Maxisorp) were coated with 100 μl of MUC1 at 1 μg/ml in carbonate-bicarbonate buffer (Sigma C3041) overnight at 4° C. MUC1 antigen used here was produced by the applicant and is a MUC1-GST fusion protein containing seven variable number tandem, repeat (VNTR) region; VNTR is the antigen recognised by MUC1.
Plates were then washed with a wash solution of PBS (phosphate buffered saline), +0.05% Tween 20, and serial dilutions of HMFG1 samples (wildtype protein or mutant) in incubation buffer (200 ml of PBS +0.2 g BSA (bovine serum albumin)) applied to the wells and incubated at 37° C. for 1 hour.
Plates were again washed, and treated with detection antibody (1.0 μl HRP (horse radish peroxidase) anti-human IgG (BD Pharmingen, P# 555788, or Jackson P#209-035-056) +1 ml incubation buffer) at 37° C. for 30 min, washed with wash buffer, and developed with TMB (tetramethylbenzidine) reagent (100 μl TMB (Sigma, T8665) warmed to room temperature and 100 μl sulphuric acid was used to stop the reaction after approximately 6 minutes). The optical density of the plates was read at 450 nm on a Spectromax plate reader immediately after development.
A general note: An ELISA detects its analyte on a solid surface through an enzyme-linked reagent.
For the molecule B1, the “fold increased affinity compared to HMFG1 standard (from EC50)” value is ~5 fold.
Next, B2: ~20 fold; B3: ~10 fold.
